Test results taken from patent US12077566.

Biological target: EGFR extracellular domain (with an amino acid sequence of 25-645) (human) (UniProt P00533)
Assay: SPR, Biacore T200; EGFR extracellular domain on CM5 chip, rLZ-8 protein as analyte

Kd: 6.43 nM
Substance: rLZ-8 (D20H/E68K) (from UniProt P14945 1-111)
